Measured values as given in publication PMC9081212.

Molecular target: wild-type human γS-crystallin (human) (UniProt P22914)
Assay: SEC-MALS

## wild-type human γS-crystallin (from UniProt P22914 1-178) (natural protein)
  stoichiometry N: 2
